Data from article PMC6402988.

Target: ADI-15946 (human)
Assay: BLI

Substance: EBOV GP cleaved (EBOV GPCL) (from UniProt Q05320 33-650) (domain or fragment)
- Kd: < 1 pM
- koff: < 1e-07 s⁻¹
